The target in the test is T1, human TIGIT-hFc (human, UniProt Q495A1 22-141).
T1 sequence (looked up): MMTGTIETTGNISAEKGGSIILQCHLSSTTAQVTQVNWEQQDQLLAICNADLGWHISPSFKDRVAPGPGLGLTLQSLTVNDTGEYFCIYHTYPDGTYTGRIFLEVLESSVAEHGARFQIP
Nature of the test: indirect ELISA screen of hybridomas with human TIGIT-hFc as antigen.

B1: 26B12 (antibody, V domains shown)
VH: EVQLQESGPGLVKPSQSLSLTCTVTGHSFTSDYAWNWIRQFPGNRLEWMGYISYSDSTNYNPSLKSRISITRDTSKNQFFLQMNSVTTEDTATYYCARLDYGNYGGAMDYWGQGTSVTVSS
VL: DIVLTQSHEFMSTSLRDRVSITCKSSQHVSTAVAWYQQKPGQSPKLLIYSASYRYTGVPDRFTGSGSGTDFTFTISSVKAEDLAVYYCQQHYITPWTFGGGTKLEIK
notes: Murine monoclonal antibody from a hybridoma; also called anti-TIGIT antibody 26B12; monoclonal antibody secreted by hybridoma cell line LT019
On to B1, for which the binding result was “binds”.

The values are drawn from patent EP4778535A1 (Akeso Biopharma Co., Ltd., dated 2026).
